{
  "source": "patent US20180326084A1",
  "about": "(Genmab, published 2018)",
  "key": {"human AXL (full length) [1]": {"molecular_target": "T1, human AXL (full length) (human, UniProt P30530 26-894)", "T1 construct": "also called TH1021-AXL; TH1021-hAXL", "assay": "FMAT screening assay, HEK-293F cells transiently expressing human AXL"}, "[2]": {"molecular_target": "T2, human AXL with a cynomolgus monkey extracellular domain (ECD) (cynomolgus monkey (Macaca …, UniProt P30530 26-894))", "T2 construct": "Chimera on transfected HEK293T cells; also called cynomolgus AXL; cynomolgus AXL-ECD", "T2 chain": "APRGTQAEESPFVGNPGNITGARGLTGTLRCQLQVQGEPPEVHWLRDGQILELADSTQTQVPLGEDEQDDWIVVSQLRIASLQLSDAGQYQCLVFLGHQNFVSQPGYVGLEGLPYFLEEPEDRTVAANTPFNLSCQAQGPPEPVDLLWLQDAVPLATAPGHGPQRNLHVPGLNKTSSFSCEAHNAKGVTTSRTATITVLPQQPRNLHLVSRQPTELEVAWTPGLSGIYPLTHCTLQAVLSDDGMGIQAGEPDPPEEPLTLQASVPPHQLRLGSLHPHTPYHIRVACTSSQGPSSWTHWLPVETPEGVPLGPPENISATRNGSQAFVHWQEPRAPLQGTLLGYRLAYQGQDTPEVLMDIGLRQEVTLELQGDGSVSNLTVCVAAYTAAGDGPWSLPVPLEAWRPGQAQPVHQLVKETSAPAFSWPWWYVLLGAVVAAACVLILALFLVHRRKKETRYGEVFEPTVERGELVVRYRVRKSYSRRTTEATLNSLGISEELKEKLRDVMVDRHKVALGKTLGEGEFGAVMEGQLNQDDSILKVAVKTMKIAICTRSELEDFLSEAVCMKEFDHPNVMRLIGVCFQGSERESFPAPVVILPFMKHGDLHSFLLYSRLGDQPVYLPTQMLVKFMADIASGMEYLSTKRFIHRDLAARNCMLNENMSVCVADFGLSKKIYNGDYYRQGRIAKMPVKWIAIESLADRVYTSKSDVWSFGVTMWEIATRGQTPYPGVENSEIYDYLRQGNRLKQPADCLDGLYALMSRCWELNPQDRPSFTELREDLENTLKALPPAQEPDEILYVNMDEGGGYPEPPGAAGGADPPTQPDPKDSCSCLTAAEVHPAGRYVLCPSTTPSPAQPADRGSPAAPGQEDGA", "assay": "flow cytometry, HEK293T cells with human AXL carrying cynomolgus ECD"}, "AXLECDHis": {"molecular_target": "T3, AXLECDHis (human, UniProt P30530 26-447)", "T3 construct": "theoretical mass 46 kDa used; also called extracellular domain (ECD) of human AXL (aa 1-447) with a C-terminal His tag; soluble recombinant AXL extracellular domain", "assay": "BLI (Octet), IgG on anti-human Fc sensor, AXLECDHis analyte"}, "human AXL (full length) [3]": {"molecular_target": "T1, human AXL (full length)", "assay": "flow cytometry, HEK293T cells with full-length human AXL"}, "[4]": {"molecular_target": "T4, Homo sapiens AXL-Mus musculus Ig1 domain (p33-AXL-mIg1) (human-mouse chimera, UniProt P30530 8-894)", "T4 construct": "Expressed in HEK293F cells; also called hsAXL-mmIg1; hsAXL-mmIgl", "T4 chain": "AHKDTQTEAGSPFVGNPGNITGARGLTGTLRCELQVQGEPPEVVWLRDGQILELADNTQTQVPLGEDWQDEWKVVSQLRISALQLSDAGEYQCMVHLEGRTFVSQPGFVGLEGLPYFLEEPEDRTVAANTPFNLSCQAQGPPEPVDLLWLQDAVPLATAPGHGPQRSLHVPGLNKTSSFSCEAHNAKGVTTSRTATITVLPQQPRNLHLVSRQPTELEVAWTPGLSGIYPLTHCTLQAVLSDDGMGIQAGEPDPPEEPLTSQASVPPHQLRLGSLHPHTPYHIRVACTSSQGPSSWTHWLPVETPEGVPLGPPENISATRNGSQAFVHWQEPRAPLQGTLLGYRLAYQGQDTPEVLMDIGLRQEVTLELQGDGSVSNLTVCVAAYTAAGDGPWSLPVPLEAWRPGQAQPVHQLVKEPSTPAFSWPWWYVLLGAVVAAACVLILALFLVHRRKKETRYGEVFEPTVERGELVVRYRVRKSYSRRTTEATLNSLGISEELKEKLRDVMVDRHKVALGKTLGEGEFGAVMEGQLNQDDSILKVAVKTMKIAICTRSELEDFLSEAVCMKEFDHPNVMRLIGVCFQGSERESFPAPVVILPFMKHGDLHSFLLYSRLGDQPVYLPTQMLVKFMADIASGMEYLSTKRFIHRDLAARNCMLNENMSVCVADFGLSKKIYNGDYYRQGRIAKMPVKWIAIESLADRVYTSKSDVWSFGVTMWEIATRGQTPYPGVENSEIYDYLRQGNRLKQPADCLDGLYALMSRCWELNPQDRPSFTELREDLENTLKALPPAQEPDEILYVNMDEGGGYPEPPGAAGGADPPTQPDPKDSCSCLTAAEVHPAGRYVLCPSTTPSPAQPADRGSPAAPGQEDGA", "assay": "flow cytometry, 1 µg/mL antibody, transfected HEK293F cells"}, "[5]": {"molecular_target": "T5, Homo sapiens AXL-Mus musculus Ig2 domain (p33-AXL-mIg2) (human-mouse chimera, UniProt P30530 26-894)", "T5 construct": "Expressed in HEK293F cells; also called hsAXL-mmIg2; TH1021-mIg2", "T5 chain": "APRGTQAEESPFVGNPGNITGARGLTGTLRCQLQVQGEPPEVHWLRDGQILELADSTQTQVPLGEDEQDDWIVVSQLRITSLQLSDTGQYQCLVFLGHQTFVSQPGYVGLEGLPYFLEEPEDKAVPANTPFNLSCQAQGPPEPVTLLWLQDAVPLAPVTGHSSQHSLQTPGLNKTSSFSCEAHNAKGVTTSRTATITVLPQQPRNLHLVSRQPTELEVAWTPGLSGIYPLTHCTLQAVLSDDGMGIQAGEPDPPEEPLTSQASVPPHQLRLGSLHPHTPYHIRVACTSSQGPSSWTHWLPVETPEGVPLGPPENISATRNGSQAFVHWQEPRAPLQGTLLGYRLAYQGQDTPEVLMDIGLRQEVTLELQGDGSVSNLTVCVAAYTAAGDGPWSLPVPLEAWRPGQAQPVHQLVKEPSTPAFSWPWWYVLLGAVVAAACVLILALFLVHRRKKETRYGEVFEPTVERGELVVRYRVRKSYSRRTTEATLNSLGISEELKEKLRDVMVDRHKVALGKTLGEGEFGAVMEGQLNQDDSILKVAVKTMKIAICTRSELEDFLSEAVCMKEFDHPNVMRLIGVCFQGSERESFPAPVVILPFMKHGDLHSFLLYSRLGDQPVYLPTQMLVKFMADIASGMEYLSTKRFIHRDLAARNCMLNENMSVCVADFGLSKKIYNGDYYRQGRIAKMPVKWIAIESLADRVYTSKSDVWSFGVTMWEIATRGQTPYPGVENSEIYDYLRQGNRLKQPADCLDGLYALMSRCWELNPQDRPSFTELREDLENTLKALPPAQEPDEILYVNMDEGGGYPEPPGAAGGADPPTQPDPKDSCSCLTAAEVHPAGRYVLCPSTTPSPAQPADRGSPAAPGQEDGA", "assay": "flow cytometry, 1 µg/mL antibody, transfected HEK293F cells"}, "[6]": {"molecular_target": "T6, Homo sapiens AXL-Mus musculus FN2 domain (p33-AXL-mFN2) (human-mouse chimera, UniProt P30530 26-894)", "T6 construct": "Expressed in HEK293F cells; also called hsAXL-mmFN2; TH1021-mFN2", "T6 chain": "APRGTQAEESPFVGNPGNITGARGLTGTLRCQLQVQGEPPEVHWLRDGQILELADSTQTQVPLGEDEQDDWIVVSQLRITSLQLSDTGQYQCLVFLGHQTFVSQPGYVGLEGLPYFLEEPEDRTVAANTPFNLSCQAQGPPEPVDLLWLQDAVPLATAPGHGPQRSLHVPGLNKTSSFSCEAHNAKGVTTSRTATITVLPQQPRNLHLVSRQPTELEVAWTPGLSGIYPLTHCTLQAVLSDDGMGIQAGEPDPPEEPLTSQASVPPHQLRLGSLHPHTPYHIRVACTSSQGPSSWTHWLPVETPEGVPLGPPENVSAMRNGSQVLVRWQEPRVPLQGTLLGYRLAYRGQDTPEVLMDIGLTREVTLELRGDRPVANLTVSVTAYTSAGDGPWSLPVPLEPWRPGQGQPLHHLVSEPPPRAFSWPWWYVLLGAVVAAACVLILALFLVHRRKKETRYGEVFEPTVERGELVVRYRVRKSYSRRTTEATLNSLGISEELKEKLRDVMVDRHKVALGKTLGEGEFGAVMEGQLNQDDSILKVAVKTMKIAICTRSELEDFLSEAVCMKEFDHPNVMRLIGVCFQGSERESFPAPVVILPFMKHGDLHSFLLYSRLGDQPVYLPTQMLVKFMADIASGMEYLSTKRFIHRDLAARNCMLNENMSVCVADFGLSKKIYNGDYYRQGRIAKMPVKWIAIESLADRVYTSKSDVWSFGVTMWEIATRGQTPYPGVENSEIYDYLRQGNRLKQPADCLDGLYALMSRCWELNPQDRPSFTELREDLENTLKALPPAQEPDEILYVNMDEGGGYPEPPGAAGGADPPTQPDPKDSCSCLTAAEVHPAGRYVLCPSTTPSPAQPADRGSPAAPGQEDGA", "assay": "flow cytometry, 1 µg/mL antibody, transfected HEK293F cells"}},
  "data": [
    {"binder": "IgG1-AXL-140 (antibody, V domains shown) VH: EVQLLESGGGLVQPGGSLRLSCAASGFTFSSYAMTWVRQAPGKGLEWVSAISISGASTFYADSVKGRFTISRDNSKNTLSLQMNSLRAEDTAVYFCRGYSGYVYDAFDIWGQGTMVTVSS VL: DIQMTQSPSSLSASVGDRVTITCRASQGISNWLAWYQQKPEKAPKSLIYAASSLQSGVPSRFSGSGSGTDFTLTISSLQPEDFATYYCQQYNSYPLTFGGGTKVEIK", "values": [
      {"measurement": "EC50", "setting": "human AXL (full length) [1]", "value": 0.0026, "unit": "µg/mL"},
      {"measurement": "Maximal binding (Arbitrary units)", "setting": "human AXL (full length) [1]", "value": 2890, "unit": "arbitrary units"}
    ]},
    {"binder": "IgG1-AXL-726-M101L (antibody, V domains shown, Expressed as human IgG1,κ) VH: QVQLQQWGAGLLKPSETLSLTCAIDGGSFSGYYWSWIRQPPGKGLEWIGEISHSGRTNYNPSLKSRVTISIDTSKNQFSLKLSSVAAADTAVYYCARFITLIRGAIITHFDYWGQGALVTVSS VL: DIQMTQSPSSLSASVGDRVTITCRASQGISSWLAWYQQKPEKAPKSLIYAASSLQSGVPSRFSGSGSGTDFTLTISSLQPEDFATYYCQQYHSYPYTFGQGTKLEIK", "values": [
      {"measurement": "EC50", "setting": "[2]", "value": 0.25, "unit": "µg/mL"},
      {"measurement": "Kd", "setting": "AXLECDHis", "value": 0.3, "unit": "nM"},
      {"measurement": "koff", "setting": "AXLECDHis", "value": "6.9e-05", "unit": "s⁻¹"},
      {"measurement": "kon", "setting": "AXLECDHis", "value": 210000, "unit": "M⁻¹ s⁻¹"},
      {"measurement": "EC50", "setting": "human AXL (full length) [3]", "value": 0.184, "unit": "µg/mL"}
    ]},
    {"binder": "IgG1-AXL-187 (antibody, V domains shown) VH: QVPLQQWGAGLLKPSETLSLTCAVYGGSFSGYHWSWIRQPPGKGLEWIGEISHSGRTNYNPSLKSRVTISIDTSKNQFSLKLSSVTAADTAVYYCASFITMIRGTIITHFDYWGQGTLVTVSS VL: DIQMTQSPSSLSASVGDRVTITCRASQGISSWLAWYQQKPEKAPKSLIYAASSLQSGVPSRFSGSGSGTDFTLTISSLQPEDFATYYCQQYHSYPYTFGQGTKLEIK", "values": [
      {"measurement": "EC50", "setting": "human AXL (full length) [1]", "value": 0.0065, "unit": "µg/mL"},
      {"measurement": "Maximal binding (Arbitrary units)", "setting": "human AXL (full length) [1]", "value": 2560, "unit": "arbitrary units"}
    ]},
    {"binder": "IgG1-AXL-154 (antibody, V domains shown) VH: EVQLLDSGGGLVQPGGSLRLSCAASGFTFSSYAMSWVRQAPGKGLEWVSAISIGGGNAYYADSVKGRFTISRDNSKNTLYLQMNSLRAADTAVYYCAKPGFIMVRGPLDYWGQGALVTVSS VL: not shown", "values": [
      {"measurement": "binding result", "setting": "[4]", "value": "binds"},
      {"measurement": "binding result", "setting": "[5]", "value": "binds"},
      {"measurement": "binding result", "setting": "[6]", "value": "binds"}
    ]},
    {"binder": "IgG1-AXL-613-08 (antibody, V domains shown) VH: QVQLVQSGAEVKKPGSSVKVSCKASGGTFSSYAINWMRQAPGQGLEWMGRIIPIFGIVNYAQKFQGRVTLTADKSTSTAYMELSSLRSEDTAVYYCARRGNYYGSGSPDVFDIWGQGTMVTVSS VL: EIVLTQSPATLSLSPGERATLSCRASQSVSSYLAWYQQKPGQAPRLLIYDASNRATGIPARFSGSGSGTDFTLTISSLEPEDFAVYYCQQRSNWLTFGGGTKVEIK", "values": [
      {"measurement": "EC50", "setting": "human AXL (full length) [1]", "value": 0.0242, "unit": "µg/mL"},
      {"measurement": "Maximal binding (Arbitrary units)", "setting": "human AXL (full length) [1]", "value": 2210, "unit": "arbitrary units"}
    ]}
  ]
}
